{"source": "paper PMC3663649", "about": "(2013)", "binders": {"B1": {"name": "GST-PWWP (PSIP1-PWWP domain, residues 3 to 100, GST fusion) (domain or fragment)", "chain": "not shown"}}, "key": {"[1]": {"molecular_target": "T1, H3KC36me3 nucleosomes (recombinant MLA nucleosomes reconstituted on 601 DNA) (Drosophila, UniProt P02299 1-136; P84040 1-103; P84051 1-124; P02283 1-123, H3KC36me3, cysteine at 36 alkylated to a thioether mimic of trimethyl-lysine (H3KC36me3))", "test": "EMSA titration 1 (top)"}, "[2]": {"molecular_target": "T1, H3KC36me3 nucleosomes (recombinant MLA …)", "test": "EMSA titration 2 (bottom)"}}, "data": [{"binder": "B1", "values": [{"measurement": "Kd", "setting": "[1]", "result": 400, "unit": "nM"}, {"measurement": "Kd", "setting": "[2]", "result": 600, "unit": "nM"}]}]}
